According to the Immune Epitope Database (IEDB):

Assays:
HLA-C*03:03 = test: IEDB peptide-MHC binding, purified MHC/direct/fluorescence; filed as Kd, often an IC50 or EC50 that approximates it; ≥ and ≤ were set here for values at or beyond the usual limits of such assays; conditions: source organism: Escherichia coli str. K-12 substr. MG1655
HLA-C*05:01 = test: as above
HLA-C*14:02 = test: as above
HLA-B*39:01 = test: IEDB peptide-MHC binding, purified MHC/competitive/fluorescence; filed as Kd, often an IC50 or EC50 that approximates it; ≥ and ≤ were set here for values at or beyond the usual limits of such assays; conditions: source organism: Escherichia coli str. K-12 substr. MG1655
HLA-B*58:01 = test: as above; conditions: source organism: Escherichia coli str. K-12 substr. MG1655
HLA-A*02:01 [1] = test: as above; conditions: source organism: Shigella flexneri 5 str. 8401
HLA-A*24:02 [2] = test: as above; conditions: source organism: Shigella flexneri 5 str. 8401
HLA-A*31:01 [3] = test: as above; conditions: source organism: Shigella flexneri 5 str. 8401
HLA-A*32:15 = test: as above
HLA-B*08:01 = test: as above; conditions: source organism: Shigella flexneri 5 str. 8401
HLA-B*15:42 = test: as above
HLA-B*45:06 = test: as above
HLA-B*83:01 = test: as above
HLA-A*29:02 = test: as above; conditions: source organism: Mycosarcoma maydis
HLA-A*32:07 = test: as above
HLA-C*04:01 = test: as above
HLA-A*01:01 = test: IEDB peptide-MHC binding, purified MHC/competitive/fluorescence; ≥ and ≤ were set here for values at or beyond the usual limits of such assays
HLA-A*02:01 [4] = test: as above; conditions: source organism: Zaire ebolavirus
HLA-A*11:01 = test: as above
HLA-A*24:02 [5] = test: as above; conditions: source organism: Zaire ebolavirus
HLA-A*03:01 = test: as above; conditions: source organism: Vaccinia virus Copenhagen
HLA-B*15:01 = test: as above; conditions: source organism: Vaccinia virus Copenhagen
HLA-A*31:01 [6] = test: IEDB peptide-MHC binding, purified MHC/competitive/radioactivity; filed as Kd, often an IC50 or EC50 that approximates it; ≥ and ≤ were set here for values at or beyond the usual limits of such assays; conditions: source organism: Vaccinia virus WR
HLA-A*33:01 = test: as above; conditions: source organism: Vaccinia virus WR
HLA-A*68:01 = test: as above; conditions: source organism: Vaccinia virus WR
HLA-A*02:03 = test: IEDB peptide-MHC binding, purified MHC/direct/fluorescence; filed as Kd, often an IC50 or EC50 that approximates it; ≥ and ≤ were set here for values at or beyond the usual limits of such assays; conditions: source organism: Mycobacterium tuberculosis str. Haarlem
HLA-A*02:11 = test: as above; conditions: source organism: Mycobacterium tuberculosis str. Haarlem
HLA-A*69:01 = test: as above; conditions: source organism: Mycobacterium tuberculosis
HLA-C*06:02 = test: as above; conditions: source organism: Mycobacterium tuberculosis variant bovis BCG str. Pasteur 1173P2
HLA-C*07:02 = test: as above; conditions: source organism: Mycobacterium tuberculosis variant bovis BCG str. Pasteur 1173P2
HLA-C*15:02 = test: as above
HLA-A*26:01 = test: as above; conditions: source organism: Mycobacterium tuberculosis
HLA-C*08:02 = test: as above; conditions: source organism: Mycobacterium tuberculosis str. Haarlem
[7] = source organism: Escherichia coli str. K-12 substr. MG1655
[8] = source organism: Shigella flexneri 5 str. 8401
[9] = source organism: Mycosarcoma maydis
[10] = source organism: Zaire ebolavirus
[11] = source organism: Vaccinia virus Copenhagen
[12] = source organism: Mycobacterium tuberculosis variant bovis BCG str. Pasteur 1173P2
[13] = source organism: Mycobacterium tuberculosis str. Haarlem

For AAAVAYPEL, the Kd (HLA-C*03:03) was 2 nM, the Kd (HLA-C*05:01; [7]) was at least 20000 nM and the Kd (HLA-C*14:02; [7]) was 2990 nM. It also gave a Kd (HLA-B*39:01) of at least 20000 nM and a Kd (HLA-B*58:01) of at least 20000 nM.
In the case of IIMRRFFYF, the Kd (HLA-A*02:01 [1]) is reported as 32.9 nM, the Kd (HLA-A*24:02 [2]) is reported as at most 0.1 nM and the Kd (HLA-A*31:01 [3]) is reported as 1.2 nM. It also gave a Kd (HLA-A*32:15; [8]) of 67.7 nM, a Kd (HLA-B*08:01) of 22.2 nM and a Kd (HLA-B*15:42; [8]) of at least 5000 nM. For the same sequence, the Kd (HLA-B*45:06; [8]) was at least 5000 nM and the Kd (HLA-B*83:01; [8]) was at least 5000 nM.
With IPVHPRHPY the Kd (HLA-A*29:02) was 938 nM, the Kd (HLA-A*32:07; [9]) was 392 nM and the Kd (HLA-A*32:15; [9]) was 1430 nM. The Kd (HLA-B*15:42; [9]) was at least 5000 nM, the Kd (HLA-B*45:06; [9]) was at least 5000 nM and the Kd (HLA-B*83:01; [9]) was 222 nM. The Kd (HLA-C*04:01; [9]) was at least 5000 nM.
With ITDKIDQII the IC50 (HLA-A*01:01; [10]) was 5950 nM, the IC50 (HLA-A*02:01 [4]) was 5020 nM and the IC50 (HLA-A*11:01; [10]) was 39200 nM. For the same sequence, the IC50 (HLA-A*24:02 [5]) was 8700 nM.
For KSNAKCIEY, the IC50 (HLA-A*01:01; [11]) was 41800 nM, the IC50 (HLA-A*03:01) was 16500 nM and the IC50 (HLA-A*11:01; [11]) was 21700 nM. The IC50 (HLA-B*15:01) was 18200 nM, the Kd (HLA-A*31:01 [6]) was 347 nM and the Kd (HLA-A*33:01) was at least 25800 nM. For the same sequence, the Kd (HLA-A*68:01) was at least 24700 nM.
YMLDMTFPV showed a Kd (HLA-A*02:03) of at most 1 nM, a Kd (HLA-A*02:11) of at most 1 nM and a Kd (HLA-A*69:01) of at most 1 nM. The Kd (HLA-C*05:01; [12]) was 3430 nM, the Kd (HLA-C*06:02) was at least 20000 nM and the Kd (HLA-C*07:02) was 651 nM. The Kd (HLA-C*14:02; [12]) was 76 nM and the Kd (HLA-C*15:02; [12]) was 407 nM.
YTPEQWWPF showed a Kd (HLA-A*26:01) of 11.4 nM, a Kd (HLA-C*08:02) of at least 20000 nM and a Kd (HLA-C*14:02; [13]) of 969 nM. It also gave a Kd (HLA-C*15:02; [13]) of at least 20000 nM, a Kd (HLA-A*32:07; [13]) of 22.9 nM and a Kd (HLA-A*32:15; [13]) of 38.2 nM. The Kd (HLA-B*15:42; [13]) was at least 5000 nM, the Kd (HLA-B*45:06; [13]) was at least 5000 nM and the Kd (HLA-B*83:01; [13]) was at least 5000 nM. For the same sequence, the Kd (HLA-C*04:01; [13]) was at least 5000 nM.
